This note sets out measurements from publication PMC9330073, “Cargo Recognition Mechanisms of Yeast Myo2 Revealed by AlphaFold2-Powered Protein Complex Prediction” (Biomolecules, 2022).

A word on the stoichiometry N: it is the number of molecules, sites or subunits per partner or assembly. For orientation: Kd means a measure of binding affinity in units of concentration. Higher therefore signals lower affinity.

Residue numbers refer to the chain shown, from its start. Like-named read-outs stand apart in the source and are kept apart here.

Experiment [1] addresses GST-Pea2-CC1 (GST-tagged Pea2-CC1; dimer) (Saccharomyces cerevisiae (strain S288c)) (UniProt P40091). The experiment is described as follows: SEC-MALS; 100 μL of 100 μM protein on Superdex 200 Increase 10/300 GL; 50 mM Tris-HCl pH 7.5, 100 mM NaCl, 1 mM EDTA, 1 mM DTT. (In general: Size exclusion chromatography separates by hydrodynamic size, large species first.)
Experiment [2] deals with Kar9^N (N-terminal folded domain of Kar9) (Saccharomyces cerevisiae (strain S288c)) (UniProt P32526). The experiment is described as follows: ITC; 500 μM Myo2-GTD in the syringe titrated into 50 μM Kar9-MIS or Pea2-MIS in the cell, 25 °C; one-site binding model. A general note: Isothermal titration calorimetry measures the heat released or taken up as one component is titrated into another.

For experiment [3], the target named is GST-Pea2-CC1 (GST-tagged Pea2-CC1; dimer) (Saccharomyces cerevisiae (strain S288c)) (UniProt P40091). The experiment is described as above.
The target in experiment [4] is Kar9^C (unstructured C-terminal region of Kar9) (Saccharomyces cerevisiae (strain S288c)) (UniProt P32526). The experiment is described as above.
In experiment [5] the target is T1, Myo2-GTD (globular tail domain of Myo2) (Saccharomyces cerevisiae (strain S288c), UniProt P19524 1152-1574).
T1 chain: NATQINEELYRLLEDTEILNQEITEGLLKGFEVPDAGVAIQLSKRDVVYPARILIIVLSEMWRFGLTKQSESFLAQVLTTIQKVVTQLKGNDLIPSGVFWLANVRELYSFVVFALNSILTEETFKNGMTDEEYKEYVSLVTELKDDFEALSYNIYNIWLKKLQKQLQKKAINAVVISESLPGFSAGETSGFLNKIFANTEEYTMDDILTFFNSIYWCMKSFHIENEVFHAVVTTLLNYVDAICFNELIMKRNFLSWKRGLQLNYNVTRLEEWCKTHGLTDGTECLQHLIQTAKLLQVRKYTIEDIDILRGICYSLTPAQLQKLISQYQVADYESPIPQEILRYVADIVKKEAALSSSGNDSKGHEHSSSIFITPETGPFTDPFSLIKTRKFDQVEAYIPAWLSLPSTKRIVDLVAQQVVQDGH
The experiment is described as follows: ITC.

The target of experiment [6] is T2, Smy1-MIS::Myo2-GTD fusion protein (Saccharomyces cerevisiae | …).
T2 chain: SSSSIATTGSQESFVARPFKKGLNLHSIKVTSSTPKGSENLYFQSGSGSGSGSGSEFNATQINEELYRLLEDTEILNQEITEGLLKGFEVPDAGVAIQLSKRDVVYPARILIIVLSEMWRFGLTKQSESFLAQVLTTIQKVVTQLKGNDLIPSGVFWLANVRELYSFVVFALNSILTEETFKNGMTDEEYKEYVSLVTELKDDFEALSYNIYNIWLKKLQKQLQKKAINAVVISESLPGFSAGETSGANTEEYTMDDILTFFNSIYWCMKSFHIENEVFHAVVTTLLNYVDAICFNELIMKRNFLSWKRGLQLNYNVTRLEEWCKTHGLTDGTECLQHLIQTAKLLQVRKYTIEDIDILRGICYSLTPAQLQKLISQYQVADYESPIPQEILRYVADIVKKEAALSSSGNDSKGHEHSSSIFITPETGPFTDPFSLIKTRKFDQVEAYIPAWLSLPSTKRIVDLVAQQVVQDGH
The experiment is described as follows: ITC.

For the next experiment, the target named is T3, Myo2-GTD D1297N (Saccharomyces cerevisiae).
T3 chain: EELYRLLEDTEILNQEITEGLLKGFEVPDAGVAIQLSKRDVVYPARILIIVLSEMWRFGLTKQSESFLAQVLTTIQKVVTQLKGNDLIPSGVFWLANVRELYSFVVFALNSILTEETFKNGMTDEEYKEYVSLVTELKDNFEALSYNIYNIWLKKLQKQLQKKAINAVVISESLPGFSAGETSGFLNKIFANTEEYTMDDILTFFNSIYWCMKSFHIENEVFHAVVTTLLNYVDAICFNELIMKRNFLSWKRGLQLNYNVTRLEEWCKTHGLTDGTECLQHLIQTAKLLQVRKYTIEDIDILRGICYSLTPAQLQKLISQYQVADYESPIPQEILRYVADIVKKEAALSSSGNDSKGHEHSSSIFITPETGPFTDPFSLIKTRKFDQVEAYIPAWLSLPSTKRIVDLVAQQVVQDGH
The experiment is described as follows: ITC.

Another experiment addresses T4, Myo2-GTD Y1303A (Saccharomyces cerevisiae).
T4 chain: T3 chain with N140D, Y146A
The experiment is described as follows: ITC.

The target in experiment [7] is T1, Myo2-GTD (globular tail domain of Myo2). The experiment is described as follows: ITC.
The target of the next experiment is T5, Myo2-GTD L1331S (Saccharomyces cerevisiae (strain S288c)).
T5 chain: T3 chain with N140D, L174S
The experiment is described as follows: ITC.

A further experiment deals with T6, Myo2-GTD W1407A (Saccharomyces cerevisiae (strain S288c)).
T6 chain: T3 chain with N140D, W250A
The experiment is described as follows: ITC.

As for “GST-Pea2-CC1 (GST-tagged Pea2-CC1; dimer) (from UniProt P40091 235-327) (domain or fragment)”, in experiment [1], the stoichiometry N stood at 2.

Consider “Myo2-GTD (globular tail domain of Myo2) (from UniProt P19524 1152-1574) (domain or fragment)”, for which the Kd in experiment [2] is 16 µM. Besides, in experiment [3], the fold enhancement of the binding affinity over the Pea2-CC1 monomer amounted to 5 fold and the stoichiometry N is 0.5. This molecule also registered a Kd in experiment [4] of 3 µM.

B1: Kar9 413-530 (protein)
chain: KKKIPKPKSLGFGRPNSVIGTITQDFQERVAINEGDSNKTPENSTTVALKGKKLGKALLQKMNIKPATSPNSSNAINPFFDPESPNKGKLILSSVPPLPYDETDETTLRVSRGENEKS
B1 showed a Kd in experiment [5] of 6.9 µM.

B2: GST-Pea2-CC1 (GST-tagged Pea2-CC1; dimer) (domain or fragment)
chain: AIQEEDSSKKLEELETAFSDLQLAHNFLTKQFENDRAEYVQDIEKLTRTNRELQDKLLNNHSNLSKTEKKLHELEQENKELEKANNKLNSSRH
modifications: N-terminal GST (pGEX-4T-1) left out; GST drives the dimerization Limits taken from 6IXQ: the fusion as Smy1-MIS, TEV site, SG linker, Myo2-GTD, assumed uncleaved as a single chain; the linker is part of the fusion
With B2, the dissociation constant (Kd) in experiment [6] was 12 µM.

B3: Kar9^N (N-terminal folded domain of Kar9) (domain or fragment)
chain: MDNDGPRSMTIGDDFQENFCERLERIHNTLHSINDCNSLNESTTSISETLLVQFYDDLENVASVIPDLVNKKRLGKDDILLFMDWLLLKKYMLYQFISDVHNIEEGFAHLLDLLEDEFSKDDQDSDKYNRFSPMFDVIEESTQIKTQLEPWLTNLKELLDTSLEFNEISKDHMDTLHKIINSNISYCLEIQEERFASPIRHTPSFTLEQLVKLLGTHTETTEPKVPKFSPAEDILSRKFLNLKKNIPPIEKSLTDILPQRIVQFGHRNITNITTLQTILQKKYELIMKDYRFMNSEFRELKVELIDKRWNILFINLNHELLYILDEIERLQSKLLTTKYTKDITIRLERQLERKSKTVSKTFNIIYRALEFSLLDAGVASKTNELAQRWLNIKPTADKILIKSSASNKIATSKKKIPKPKSLGFGRPNSVIGTITQDFQERVAINEGDSNKTPENSTTVALKGKKLGKALLQKMNIKPATSPNSSNAINPFFDPESPNKGKLILSSVPPLPYDETDETTLRVSRGENEKSPDSFITSRHENKVQITETPLMAKNKSVLDIEKDKWNHYRSLPSRIPIYKDKVVKVTVENTPIAKVFQTPPTKITTPNSQVWVPSTRRRTRLRPPTPLSQLLSPREGRLDKTPTY
For the molecule B3, the Kd with Myo2-GTD D1297N and with Myo2-GTD Y1303A was 16 µM each time.

B4: Kar9^N (N-terminal folded domain of Kar9) (domain or fragment)
chain: B3 chain
modifications: Limits taken from 6IXQ: the fusion as Smy1-MIS, TEV site, SG linker, Myo2-GTD, assumed uncleaved as a single chain; the linker is part of the fusion
The molecule B4 had an equilibrium dissociation constant (Kd) in [6] of 17 µM.

B5: Smy1-MIS (Myo2-interacting sequence of Smy1) (domain or fragment)
chain: SSSSIATTGSQESFVARPFKKGLNLHSIKVTSSTPK
In the case of B5, the Kd with Myo2-GTD D1297N was found to be 14 µM; in experiment [7], 21 µM; with Myo2-GTD Y1303A, 14 µM.

B6: Kar9^C-MIS (Myo2-interacting sequence in the C-terminal region of Kar9) (domain or fragment)
chain: ALKGKKLGKALLQKMNIKPATSPNSSNAINPFFDPESPNKGKLILSSVPPLPY
For B6, the Kd in the experiment with Myo2-GTD D1297N stood at 7.7 µM; with Myo2-GTD L1331S it was 8.9 µM; with Myo2-GTD Y1303A, 7.1 µM; with Myo2-GTD W1407A, 7.5 µM; in [5] it was 7.7 µM.

B7: Inp2 (peptide)
chain: NHGFHLDILKGRK
In turn, B7 came in with a Kd in [7] of 32 µM.

B8: Vac17-MIS (Myo2-interacting sequence of Vac17) (domain or fragment)
chain: PNEAPNDSPQSQSTRSSLGSFQPRPLKIIERQRLCMVTPSKPPKKS
modifications: Limits taken from 6IXQ: the fusion as Smy1-MIS, TEV site, SG linker, Myo2-GTD, assumed uncleaved as a single chain; the linker is part of the fusion
B8: in experiment [6], the Kd is 0.32 µM.

B9: Mmr1 (peptide)
chain: GNSARIPCPKTRLARVSVLDLKKIEEQPDSSSG
modifications: Limits taken from 6IXQ: the fusion as Smy1-MIS, TEV site, SG linker, Myo2-GTD, assumed uncleaved as a single chain; the linker is part of the fusion
Take B9: in [6], the Kd came to 6.2 µM.

B10: Mmr1 (peptide)
chain: B9 chain
Turning to B10, the Kd with Myo2-GTD D1297N was found to be 21 µM; in experiment [7], 6.8 µM.
